From patent US20200181274A1

Target: CD123 (interleukin-3 receptor alpha) on CD123-positive human AML cells (KG-1a, Kasumi-3, AML patient blasts) (human) (UniProt P26951)
Assay: cell-based or functional assay

Sequence of UniProt P26951 (P26951 19-378): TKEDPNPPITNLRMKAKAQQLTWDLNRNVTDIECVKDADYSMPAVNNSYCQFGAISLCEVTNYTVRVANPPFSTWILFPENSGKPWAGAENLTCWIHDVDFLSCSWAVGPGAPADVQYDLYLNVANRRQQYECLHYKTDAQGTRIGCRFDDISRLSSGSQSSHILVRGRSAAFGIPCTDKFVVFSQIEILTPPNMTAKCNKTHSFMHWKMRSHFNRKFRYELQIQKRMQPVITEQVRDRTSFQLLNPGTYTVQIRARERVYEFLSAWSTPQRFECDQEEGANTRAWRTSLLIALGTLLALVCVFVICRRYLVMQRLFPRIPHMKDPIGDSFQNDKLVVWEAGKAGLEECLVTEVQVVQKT

apoptosis (annexin-V positivity) of CD123-expressing KG-1a cells with AML subject-derived PBMC, 48 hours: 50% | depletion of putative blast cell population in PBMC of 6 AML subjects, 48 hours: 20 to 90% | reduction of putative leukemic blast number in AML PBMC, 9 or 90 ng/mL, 48 hours: 80%
Substance: XmAb14045 bispecific anti-CD123 x anti-CD3 Fab-scFv-Fc antibody (bispecific antibody)
T cell-dependent cytotoxicity (RTCC) against CD123+ KG-1a cells with human PBMC as effectors, EC50: 0.28 ng/mL | T cell-dependent cytotoxicity (RTCC) against CD123+ Kasumi-3 cells with human PBMC as effectors, EC50: 0.01 ng/mL
